Common to all, as to experiment: cell-based or functional assay
Test [1] has as its target chemokine receptor CCR2 (human) (UniProt P41597).
Test [2] concerns the target chemokine receptor CCR4 (human) (UniProt P51679).
Test [3] addresses chemokine receptor CCR6 (human) (UniProt P51684).
The target of test [4] is human chemokine receptor CCR5 (human) (UniProt P51681).
The target of test [5] is chemokine receptor CCR8 (human) (UniProt P51685).

Turning to “CCL2/MCP-1 (from UniProt P13500 24-99) (ligand)”, the calcium mobilisation, share of THP-1 cells responding in test [1] was more than 95%.

With “CCL17/TARC (from UniProt Q92583 24-94) (ligand)”, in test [2], the EC50, calcium mobilisation in CCR4-CHO cells was found to be 0.24 nM and the chemotaxis of HUT78 cells, concentration of maximal efficacy was 1 nM.

Regarding “CCL20/MIP-3alpha (from UniProt P78556 27-96) (ligand)”, the EC50, calcium mobilisation in CCR6-CHO cells in test [3] came to 1.27 nM.

Regarding “GS-U83A (from UniProt P52460 5-97) (ligand)”, the reduction of HIV-1 JRCSF infection of CEM-NKR-CCR5-luc cells at 1 uM in test [4] was 93%. In addition, the blocking of CCL1 (1 nM) induced chemotaxis of HUT78 cells by 100 nM pre-treatment in test [5] is 10%.

Regarding “GSRIEGR-U83A (from UniProt P52460 5-97) (ligand)”, the blocking of CCL22 (10 nM) induced chemotaxis of HUT78 cells by 100 nM pre-treatment in test [2] was 25%.

The values are drawn from patent US20110098212A1.
